± gives the uncertainty stated by the source.

The series in a line: amyloid nucleation score (Sup35N fusion, yeast selection) (log enrichment); library NNK1; higher = more nucleation; inactive = no reads after selection. The method, boiled down: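 Using DiMSum, nucleation scores were taken as the log enrichment of output over input reads, centred on the mode score of non-aggregating sequences. The input and output reads came from Illumina sequencing of plasmid inserts, with sequences under 100 input reads excluded. The yeast were psi-negative, expressed Sup35N fused to peptides of 20 random codons, were induced with 100 μM copper sulfate for 24 hours, and were grown 7 days at 30°C on medium lacking adenine and uracil.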
In turn, RELNSRPVFYLLGMDQSIGA yielded an amyloid nucleation score of 4.43 ± 0.14.

The substance CGNLVCCNIMTDKNGY gave an amyloid nucleation score of 7.886 ± 0.055.

In the case of YLALVSANNASKKAVVKSTE, the amyloid nucleation score is -0.054 ± 0.72.

The substance IFNSNLLLTATRGDSVIWPY showed an amyloid nucleation score of 3.26 ± 0.14.

Take RVTPISCKYVLLTPMRLKNR: the amyloid nucleation score worked out at 2.35 ± 0.3.

As for SFTVVGLKLTIVRDNNS, the amyloid nucleation score turned out to be 3.86 ± 0.12.

Take GSVSVSQQS: the amyloid nucleation score was -1.4 ± 2.4.

Regarding REGNVSYYSFGL, the amyloid nucleation score is -1.48 ± 1.4.

With DQVISNCRLNMGV, the amyloid nucleation score is -0.369 ± 0.56.

FPNALDYLYVV displayed an amyloid nucleation score of -0.243 ± 0.22.

Consider CHNVVLFVVTQSMCEVSGGW, for which the amyloid nucleation score result is “inactive”.

As to YGLDPHSAAEALLVRPNTGR, the amyloid nucleation score is -0.18 ± 0.41.

With TIHFRSDQHLSNIWRGFWQY, the amyloid nucleation score result was “inactive”.

With GLVRDTTTMNVSLSVMSSAR, the amyloid nucleation score came to 1.39 ± 0.84.

The substance KDLLYKSIRW displayed an amyloid nucleation score of 1.03 ± 0.27.

Take FAQWDNLSARSLKGDQRESA: the amyloid nucleation score is 0.302 ± 0.52.

NGWTFYCSCSWCGI registered an amyloid nucleation score of 8.306 ± 0.049.

Turning to LRCCRVN, the amyloid nucleation score was -0.474 ± 0.42.

As to ENDVSQPVRLTVVTRWSWYT, the amyloid nucleation score is 0.229 ± 0.53.

As to LPFGGAWVSLCLLRVICILR, the amyloid nucleation score result is “inactive”.

As for DTSGSYMLSYLWGYWQLRSA, the amyloid nucleation score was 0.073 ± 0.56.

On to IRDMFVSGSQFFLKHMLSRG, for which the amyloid nucleation score is 0.436 ± 0.78.

In turn, SFKGYVSWVGSPHRAVG registered an amyloid nucleation score of 0.425 ± 0.86.

Consider YVEPSF, for which the amyloid nucleation score was -0.083 ± 0.97.

As for LGIFSNIYGFV, the amyloid nucleation score was 0.277 ± 0.45.

Turning to CLRLELDKF, the amyloid nucleation score amounted to 3.34 ± 0.12.

Substance VHRQMEMIIKIVWTRAYAFT gave an amyloid nucleation score of 2.33 ± 0.6.

In turn, QVYLILTEMRMTF displayed an amyloid nucleation score of 1.4 ± 0.13.

Substance LSMGRYRPKRFLLRNTSDTL had an amyloid nucleation score of -0.438 ± 0.44.

For the substance CPMEKSGVELDV, the amyloid nucleation score came out at 0.094 ± 0.41.

The substance LFHANQKHAGWSRASTLEAC came in with an amyloid nucleation score of -0.954 ± 0.54.

LFNGLYHLVMRVMWRRLV had an amyloid nucleation score of -0.061 ± 1.2.

Substance VLTTS came in with an amyloid nucleation score of -0.086 ± 0.26.

In the case of MQVVKIGKLFG, the amyloid nucleation score was -0.112 ± 0.39.

In the case of AAFSDPRNRLMKPVELKHAL, the amyloid nucleation score came to 1.31 ± 0.9.

The substance GCNSMTRLLRGAWPPPYWRG registered an amyloid nucleation score of 0.274 ± 0.77.

VDLALLYCDIKMQLV showed an amyloid nucleation score of 1.14 ± 0.88.

As for PYWVYEHSTC, the amyloid nucleation score is -0.726 ± 0.63.

TLSKVICVSPTVGMGLSSER: the amyloid nucleation score was determined as 0.616 ± 0.79.

Consider SWRSSTCSALVQGQYKA, for which the amyloid nucleation score was -0.051 ± 0.32.

Take LFLKRGPSCTCLLRKSTIEH: the amyloid nucleation score came out at 0.182 ± 0.69.

RSFCRSSVIFVFP: the amyloid nucleation score was 2.79 ± 0.19.

As for IGWNFAFVSGILVW, the amyloid nucleation score entry was “inactive”.

The substance GPTCDLRFAFNPHVTYGGHG returned an amyloid nucleation score of 1.29 ± 0.64.

On to IKYFVLAWTSDPLTYVTVTS, for which the amyloid nucleation score came out at 0.953 ± 0.46.

VVVCSNLMYLNCNWAATNNL had an amyloid nucleation score of 7.163 ± 0.047.

HLKRRLKFDSGTSYQLVQKV registered an amyloid nucleation score of 0.177 ± 1.

SNSLTFYFSKCYTSCSNLLG had an amyloid nucleation score of 6.079 ± 0.057.

Consider GKPWSSCHENSLINMDHSDV, for which the amyloid nucleation score entry was “inactive”.

For LLPGLIEWSVGLMCLIL, the amyloid nucleation score came to 0.023 ± 0.9.

Substance CKVQLSQDRAVECGVNHGVY came in with an amyloid nucleation score of -0.01 ± 0.44.

Substance VSVTLLFFTVPIQGRVMQFS had an amyloid nucleation score of 0.148 ± 0.29.

In turn, RSDVVVFHQLS showed an amyloid nucleation score of -0.257 ± 1.7.

The substance LWSLVCSELCWDVLFNALPG came in with an amyloid nucleation score of -1.03 ± 0.71.

As to TEEFYPARSCMK, the amyloid nucleation score is -1.87 ± 1.3.

MYGGKCSNGPCMYSVGIGTW came in with an amyloid nucleation score of 1.39 ± 0.34.

In turn, NGEIVYASWTCDPSIGRRGK gave an amyloid nucleation score of 0.207 ± 0.97.

VHCLLAGRKMNFGLFCINVQ: the amyloid nucleation score is -0.025 ± 0.68.

In the case of VHLTSPYHCRVPDMNSCYGS, the amyloid nucleation score was 0.371 ± 0.91.

Consider YRFSGEGALLASKWLINNCT, for which the amyloid nucleation score is -0.224 ± 0.4.

PFCGTFVCGVGLWIRVNCNR yielded an amyloid nucleation score of 0.728 ± 0.74.

ASRILV displayed an amyloid nucleation score of -0.552 ± 0.6.

For WLMVLATGAYAMHWVVTSSL, the amyloid nucleation score came out at 2.98 ± 0.069.

Regarding TLDYVSYWGFTIWYAFMMVL, the amyloid nucleation score result was “inactive”.

Consider YTSDKGKLYCGLMMG, for which the amyloid nucleation score is -0.045 ± 0.59.

FVRGDKLRTTGELSSAINRS yielded an amyloid nucleation score of -0.608 ± 0.57.

In turn, VTCWPDICRSFYMIVLHCFR gave an amyloid nucleation score of 0.141 ± 0.7.

For the substance KSAASILCTMNVSYRSNFLE, the amyloid nucleation score came to 1.08 ± 0.37.

With RFMKPTMVWL, the amyloid nucleation score stood at 0.005 ± 1.4.

In the case of NGLFAYVRM, the amyloid nucleation score is 0.505 ± 0.27.

AIKCHL showed an amyloid nucleation score of -0.721 ± 1.9.

With FSGLCRSTPGI, the amyloid nucleation score was -0.469 ± 0.32.

In the case of FYWMMANRNTQCVVCFAVLR, the amyloid nucleation score was -0.754 ± 0.54.

As to IWIDKRWLMMPKLVRKVPNV, the amyloid nucleation score result is “inactive”.

ARTMKDYPLRTYVYYAPAGY came in with an amyloid nucleation score of 0.453 ± 0.75.

For DCDGVLSLCIMVHEIYRKVG, the amyloid nucleation score result is “inactive”.

Regarding AVIFVVLKMSFSISECDDEW, the amyloid nucleation score entry was “inactive”.

Substance RLNNRRFLSWRCTNNQCWRV registered an amyloid nucleation score of -0.159 ± 0.86.

FRMCCNYYICHLDGVILIG: the amyloid nucleation score was determined as 1.65 ± 0.26.

With AFLCESFSLVWYWLLWEWRW, the amyloid nucleation score was -0.126 ± 0.77.

Substance PRYMTLGVVWSMSGWSESVQ registered an amyloid nucleation score of 1.04 ± 0.52.

Substance SNGCPFDTIDQAKVGTVV yielded an amyloid nucleation score of 0.861 ± 0.68.

As to DHNLWFDNAFMSLCCCMNMI, the amyloid nucleation score is 3.42 ± 0.19.

Turning to RREFYFLLVIALKSV, the amyloid nucleation score was found to be 1.32 ± 0.31.

In turn, MRYVMTFFFHSYKA came in with an amyloid nucleation score of -1.15 ± 0.91.

The substance SNVDSWFGRVTSA registered an amyloid nucleation score of -0.698 ± 0.33.

Substance QSETDQIFEVFFSDWHSCTK displayed an amyloid nucleation score of 0.777 ± 0.97.

The substance SMLALGFPSVNCQWTGATFS returned an amyloid nucleation score of 1.22 ± 0.97.

For the substance ESGYVLESSVQVENKFIFTT, the amyloid nucleation score was -2.27 ± 2.4.

Consider FNSGNQ, for which the amyloid nucleation score was -0.442 ± 0.37.

In the case of CLCSYYKILVYSSLVLDNAY, the amyloid nucleation score was 0.58 ± 0.45.

For PTRPMTTELRRKVRRPALDG, the amyloid nucleation score was -0.139 ± 0.62.

As for LTHCAWVAFDA, the amyloid nucleation score was determined as 1.7 ± 0.52.

Turning to GISFY, the amyloid nucleation score came out at 1.28 ± 0.9.

GRPICYKTHFSSLYVSEVDR registered an amyloid nucleation score of -1.19 ± 1.4.

Consider TSSVGMWGQWYSRWNSRKCN, for which the amyloid nucleation score was -0.573 ± 1.7.

For RLWSRPSS, the amyloid nucleation score worked out at 1.14 ± 0.79.

Substance RSVWDRWFDPIMTFEQESTW displayed an amyloid nucleation score of -0.812 ± 1.7.

Turning to NDTQLRISACYALRDNGEWV, the amyloid nucleation score amounted to 1.12 ± 0.66.

As for RTYSFC, the amyloid nucleation score is -0.41 ± 0.93.

Regarding QFVMINYSSSNVASPNLLRI, the amyloid nucleation score turned out to be 0.94 ± 0.3.

As for MHWLRGVRS, the amyloid nucleation score turned out to be 0.082 ± 0.47.

TDSSREGVNLHKLLFTFAMR came in with an amyloid nucleation score of 0.137 ± 1.1.

Consider IDWTVDKRSKLMYRGKGSVA, for which the amyloid nucleation score was -0.306 ± 0.97.

With NCVRSCISMQVYCTPAVVMY, the amyloid nucleation score was determined as 5.483 ± 0.053.

As to SDTRYGLFVNWRFWDRGSGW, the amyloid nucleation score came to 0.238 ± 0.34.

Consider APNTEMGFEGLRELQVLPVV, for which the amyloid nucleation score is -0.854 ± 1.1.

LVFDGNLETCRQ displayed an amyloid nucleation score of 0.164 ± 0.61.

As to IGYRCIVLS, the amyloid nucleation score was 1.24 ± 0.45.

On to PVARTPHWVLAVRWHALIWG, for which the amyloid nucleation score was 1.4 ± 0.29.

With EIIET, the amyloid nucleation score was found to be 0.534 ± 0.34.

Regarding TRLHRSQYSLSQSYNRTRKM, the amyloid nucleation score amounted to 0.39 ± 1.2.

ECFDANIWFWSCPMVHYG showed an amyloid nucleation score of 0.904 ± 0.19.

On to NFELEHLEICSDVCFGCAAE, for which the amyloid nucleation score worked out at 1.12 ± 0.65.

In the case of PISSGNCSTRLGSFSSWYSV, the amyloid nucleation score was -0.485 ± 0.68.

VIDYVGFRHTGGGSVGFVGG yielded an amyloid nucleation score of -0.387 ± 0.65.

Substance MFIASGV came in with an amyloid nucleation score of -1.65 ± 0.84.

INNSDSCVMLMMNRVFCHGG displayed an amyloid nucleation score of 6.085 ± 0.048.

For the substance RQDARE, the amyloid nucleation score was 0.004 ± 0.42.

As to DIPIDIWSYPQHGRFS, the amyloid nucleation score is -0.814 ± 0.79.

For the substance NLRLAWRGQTVCRETHKRPF, the amyloid nucleation score is 2.37 ± 0.13.

For LLFTNEKHNSLVNQGTPEWC, the amyloid nucleation score amounted to 0.13 ± 0.9.

Substance LCKPCLGY returned an amyloid nucleation score of 0.639 ± 0.24.

In turn, EMAFSSINPRGHSIQGSASG showed an amyloid nucleation score of -0.282 ± 1.2.

Turning to YLYIRLPVITVRLDWLFGAK, the amyloid nucleation score was 0.464 ± 0.84.

In turn, YVSAGWVYRSYFGIIFILRN showed an amyloid nucleation score of -0.873 ± 1.1.

On to FTWIVFANSSAYFRTLQWSC, for which the amyloid nucleation score turned out to be 0.032 ± 0.28.

VSSLWFKDYQYVFDDCYAKP displayed an amyloid nucleation score of -0.258 ± 0.56.

As to LQFNSLAVLGVPGEMNEQTG, the amyloid nucleation score is -0.228 ± 0.58.

On to LLIALFSW, for which the amyloid nucleation score was found to be 1.34 ± 0.25.

LDFMSLHN returned an amyloid nucleation score of 0.218 ± 1.

Take GKRGSTQDEAKR: the amyloid nucleation score result was “inactive”.

The substance WCSDKSVGRAKDDDSGTRRC displayed an amyloid nucleation score of -0.018 ± 0.46.

KGNYFRVTVYSAGFIQLLMS came in with an amyloid nucleation score of 6.393 ± 0.049.

On to NYTTSMNPLHFVACK, for which the amyloid nucleation score entry is “inactive”.

RDDDPYVQDRPLRDFVFKKY came in with an amyloid nucleation score of -0.472 ± 0.35.

RACGYYCKSLCPGCKTCLSR came in with an amyloid nucleation score of 0.005 ± 1.7.

TIDGSPIGMTTWPVPSFKFS came in with an amyloid nucleation score of 0.742 ± 0.56.

In the case of TNFLKSFHV, the amyloid nucleation score was -1.95 ± 1.8.

As for VIWSNWRRRVPEGPDERYKR, the amyloid nucleation score came to 0.649 ± 0.46.

Values taken from the supplement of paper PMC12042874.
